A short description of this data set: yeast display, Sf9 membrane polyspecificity reagent, FACS + sequencing; frameworks hold sequencing errors. In a few lines:
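After 36–48 hours of galactose induction, yeast (Saccharomyces cerevisiae BJ5465) displaying a synthetic nanobody library were stained at 4 °C for 1 hour with 10% biotinylated, detergent-solubilized Sf9 membrane reagent. Streptavidin microbeads enriched the stained cells before FACS sorting into low and high (top ~1%) gates on anti-HA and streptavidin fluorescence. Each clone's polyreactivity label reflects its gate of origin.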
Consider “QVQLGESGGGLVQAGGSLRLSCAASGSTFKLYAMGWYRQAPGKERELVAAIRGSGGRTYYADSVKGRFTISRDNAKNTVYLQMNSLKPEDTAVYYCAAAYIGVWKYDSWGQGTQVTVSS”, for which the “polyreactivity (PSR sort gate)” value is on record as “high polyreactivity”. With “QVQLVESGGGLVQAGGSLRLSGASYGFIFVWYAMGWYRQAPGKEREFVAAITSLGGSTYYADSVKGRFTISRDNEKNSVYLHMYSLNPEDTADYYCNAEFFYRGSGYDSWGQGTQVTVSS”, the “polyreactivity (PSR sort gate)” value is listed as “high polyreactivity”.

Consider “QVQLVESGGGLVQAGGSLRLSCAASGSTFTDYAMGWYRQAPGKERELVAAIRFSGGSTYYADSVKGRFTISRDNAKTTVYLQMNSLKPEDTAVYYCAAAGYPWLDSWGQGTQVTVSS”, for which the “polyreactivity (PSR sort gate)” value is listed as “low polyreactivity”.

As to “QVQLVESGGGLVQAGGSLRLSCAASGSTFRNAMGWYRQAPGKERELVAAISYSGGRTYYADSVKGRFTISRDNAKNTVYLQMNSLKPEDTAVYYCASPGVSWSTRSYYYWGQGTQVTVSS”, the “polyreactivity (PSR sort gate)” value is “high polyreactivity”. The entry for “QVQLVESGGGLVQAGGSLRLSCAASGFIFYSYAMGWYRQAPGKERELVAAISRSGGITYYADSVKGRFTISRDNAKNTVYLQMNSLKPEDTAVYYCAKVGRGVSSIKDMDSWGQGTQVTVSS” is “high polyreactivity”; for “QVQLVDSGGGLVQAGGSLRLSCAASGFIFPLYTMGWSRQAPGKERELVAAITGSGGSTYYADSVKGRFTISRDNEKNTVYLQMNSLKPEDSAVYYCAKDYTYGMDWGQGTQVTVSS” it is “low polyreactivity”; for “QVQVVESGGGLVQEGGSLRLSCSASGRIFGVNAMGWYRKAPGKERELFAAISRSGGSTYYADSVKGRFTISRDNEKNTVYLQMNSLNPEDTAVYYCAAGGRRYDDDYWGQGTQVTVSS” it is “high polyreactivity”.

Regarding “QVQLVESGGGLVQAGGSLRLSCAASGYIFRFNAMGWYRQAPGKERELVAVITSGARTYYADSVKGRFTISRDNAKNTVYLQMNSLKPEDTAVYYCNAGARRYLYDYWGQGTQVTVSS”, the “polyreactivity (PSR sort gate)” value is given as “low polyreactivity”.

Turning to “QVQLVESGGGLVQAGGSLSLSCAASGFTFSWNAMGWYSQAPGKERELVATITRSGSTYYADSVKGRFTISRDNSKNTVYLQMNSLKPEDTAVYYCAVVSWYRYSRYVNDYWGQGTQVTVSS”, the “polyreactivity (PSR sort gate)” value is reported as “high polyreactivity”.

As for “QVQLVESGGGIVQAGGSLRLSCAASGNIFPYYAMRWYRQERGKERELVASISRSGGSTYYADSVKGRFTISRDNAKNTVYLEMNSLKPEDTAVYYCNTLSRSWQMDYWGLGTQVTVSS”, the “polyreactivity (PSR sort gate)” value was “low polyreactivity”.

With “QVQLVESGVGLVQAGGSLRLSCASSGRIFGHYAMGWYRQAPGTERELVAAISWRGGRTYYADSVKGRFTISRDHAKNTVYLQMNSLKPEDTAVYYCAAGSSRVFRKAGITRPSGLYYYWGQGTQVSVSS”, the “polyreactivity (PSR sort gate)” value was “high polyreactivity”.

Consider “QVQLVESGGGLVQAGGSLRLSCAASGFTISRNAMGWYRQAPGKERELVAAISQSGGSTYYADSVKGRFTISRDNAKNTVYLQMNSLKPEDTAVYYCAAQSFAQYGWRYGYWGQGTQVTVSS”, for which the “polyreactivity (PSR sort gate)” value is given as “high polyreactivity”.

Take “QVQLVESGGGLVQAGGSLRLSCAASGFTFYTYAMGWYRQAPGKERELVAAITSSGGSTYYADSVKGRFTISRDHAKNTVYLQMNSLKPEDTAVYYCKAVSYYLGDDYWGPGTQVTVSS”: the “polyreactivity (PSR sort gate)” value was “high polyreactivity”. Under “QVQLVESGGGLVQAGGSLRLSCAASGRIFSYNAMGWYRQAPGKERELVAAISSDGSTYYADSVKGRFTISRDNAKNTVYLQMNSLKPVDTAVYYCAARQVVWFDYTTAQVGSYKVNYWGQGTQVTVSS” stands “low polyreactivity”; under “QVQLVESGGGIVQAGGSLRLSCAASGSTIDHYTMGWYSQAPGKERELVAAINRIGDSTYYADSVKGRFTISRDNAKNTVYLQMYSVNPEDTAVYYCAARHVPRFKNYGYWGQGTQVTVSS”, “high polyreactivity”; under “QVQILESGGWLVQAGGSLRLSCASSGRTFDVYAMGWYRQAPGKERELVAAISWGAGNTYYADSVKGRFTISRDNAKNTVYLQMNSLKPEDTAVYYCAAEDDWSEYDYWGQGTQVTVSS”, “high polyreactivity”. Under “QVQLVESGGGLVQAGGSLRLSCAASGSTFYGNAMGWYRQATGKERELVAAIRWRGGRTYYADSVKGRFTISRDNAKNTVYLQMNSLKPEDTAVYYCNALPGVSHTQYDRVGYWGQGTQVTVSS” stands “high polyreactivity”; under “QVQLVETGGRLVQAGGSLRLSSAASGSIFYPYAMGWYRQAPGKEREWVATITISGGRTYYADSVKGRFTISRDNAKNTVYLQMNSLKPEDTAFYYCATEYAYGAFLYDYWGQGTQVTVSW”, “low polyreactivity”; under “QVQLVESGGGLVQAGGSLRLSCAASGSILLYYSMGWYIQAPGKERELVARISITRDSTYYADSVKGRFTISRDNAKNTVYLQMYSLNPEDTAVYFCAADPVLHYYPSYYTGALDYYWGQGTQVTVSS”, “low polyreactivity”. As to “QVQLVESGGGLVHAGGSLRLSCAASGRTFWYYAMGWYRQAPGKERELVAAITRGGRTNYADSVKGRFTISRDNAKNTVYLQMNSLKPEDTAVYYCAADYRYPAHSYGYWGQGTQVTVSS”, the “polyreactivity (PSR sort gate)” value was “high polyreactivity”.

Turning to “QVQLVESGGGLFQAGGRLRLSCAPSGSNFVGYVMGWYRQAPGKERELVARIRWGGGRTYYADSVKGRFTISRDNAKNTVYLQMNSLKPEDTAVYFCAAETWWRTRIYDYWGQGTQGTVSS”, the “polyreactivity (PSR sort gate)” value is given as “high polyreactivity”. The entry for “QVQLVESGGGLVQAGGSLRLSCAASGFTFYVYTMGWYRQAPGKERELVAAITWSGGSTYYADSVKGRFTISRDNAKNNVYLQMNSLKPEDTAVYYCNRVGYWVGHDSWGQGTQVTVSS” is “high polyreactivity”; for “QVQLVESGGGLVQAGGSLRLSCAASGSTFDVYAMGWYIQAPGKERELVASIRWSGGSTNYADSVKGRFTISRDNAKNTVYLQMNSLKPEDTAVYYCNADVGTGFRPGQYDYWGQGTQVTLSS” it is “low polyreactivity”; for “QVHLVESGGGLVQAGGRLRLSCAASGIIFRLYGMGWYRQAPGKEREFVATITWRGGRTNYADSVKGRFTIARDNAKNTVYLQMNSLKPEDTAVYYCAKVVRYARSNEYDSWGQGTQVTVSS” it is “low polyreactivity”. The entry for “QVQLVESGGGLVQAGGSLRISCDASGSIISRNAMGWYRQAPGKEREFVAAITRSGGSTSYADSVKGRFTISRDNAKNTVYLQMNSLKPEDTAVYYCAASYARSATAYYKYYDWGQGTQVTVSS” is “high polyreactivity”; for “QVQLVESGGGLVQAGGSLRLCCAASGSTFGWNAMRSYRQAPGNERELVAAISSSGGITYYADSVKGRFPISRDNAKNTVYLQMNSLKPEDTAVYYCAAERDDDWFNYWGQGTQVTVSS” it is “low polyreactivity”.

Consider “QVQLVESVGGLVQAGGSLRLSCAASGSTFEDNAMGWYRQAPGKERELVAAITTGGGSTYYADSVKGRFTISRDNAKNTVYLQINSLKPEDTEVYYCNAEHGWFGLLFIATANEYDYLGQGTQVTVSS”, for which the “polyreactivity (PSR sort gate)” value is listed as “low polyreactivity”. Regarding “QVQLVESGGGLVQAGGSLRLSCAASGSIFYRYSMGWYRQAPGKEREFVAAITWSGGSTYYADSVKGRFTISRDNAKNTVYLQMNSLKPEDTAVYYCAKDSGSYRVGIYEPFPYGYWGQGTQVTVSS”, the “polyreactivity (PSR sort gate)” value was “low polyreactivity”.

For the sequence “QVQLVESGGGLVPAGGSLLLSCAASGRTIYSYGMGWYRQAPGKERELVASISSSTGSTYYADSVKGRFTISRDNAKNTVYLQMNSLKPEDTAVYYCAKRYSWTRRYDYWGQGTQVTVSS”, the “polyreactivity (PSR sort gate)” value is given as “high polyreactivity”.

Consider “QVQLVESGGGLVQAGGSLRLSCAASGSIFYRYAMGWYRQAPGKERELVAAISDRSGSTYYADSVKGRFTISRDNAKNTVYLQMNSLKPEDTAVYYCAAAYNYRAAGYGLSRYYYWGQGTQVTVSS”, for which the “polyreactivity (PSR sort gate)” value was “high polyreactivity”. Under “QVQLVESGGGLVQAGGSLRLSCAASGLIFTSYAMGWYRQATGKERELVAAISGSAASTYYADSVKGRFTISRDNAKNTVYLQMNSLKPEDTAVYYCAADYQGYTPSDGRYYWGQGTQVTVSS” stands “low polyreactivity”; under “QVQLVESGGGLVQAGGSLRLSCAASGYTFFEYTMGWYRQAPGKVREFVAAISWSGGITYYADSVKGRFTISRDNAKNTVYLQMNSLKPEDTAVYYCNADIYSPTPIDYNYWGQGTQVTVSS”, “low polyreactivity”; under “QVQLVESGGGLVQAGGSLRLSCAASGSTFGNYAMGWYRQAPGKERELVAAISVGDGSTYYADSVKGRFTISRDNAKNTVYLQMNSLKPEDTAFYYCAADFVYPSWHYDYWGQGTQVTVSS”, “high polyreactivity”. In the case of “QVQLLESGGGLVQAGGSLRLSCAASGRIIPYYAMGWYRQAPGKERELVATITSGGSTYYADSVKGRFTISRDNAKNTVYLQRNSLKPEDTAVYYCAARYPSIYYYRYDYWGQGTHVTVSS”, the “polyreactivity (PSR sort gate)” value is “high polyreactivity”.

With “QVQLVESGGGLVQAGGSLRLSCAASGSTFWVYAMGWYRQAPGKERELVASITFSGSSTYYADSVKGRFTISRDNAKNTVYLQMNSLKPEDTAVYYCAAGEGGDRSRGYLSQYGYWGQGTQVTVSS”, the “polyreactivity (PSR sort gate)” value is on record as “low polyreactivity”. The entry for “QVQLVESGGGLVQAGGSLRLSCAASGLTFDGNTMGWYRQAPGKERELVAAISIDGGNTYADSVKGRFTISRDNAKNTVYLQMNSLKPEDTAVYYDYWGQGTEVTVSS” is “low polyreactivity”. The entry for “QGQHVETGGGLVQAGCTLRLSCAASGFTCGNYAMGWYRQAPGKGRELVAAIDSDGSTDYADAVKGRFTISRDNAKNTVYLQMNSLKPEDTAVYYCAARFDYGPRGCDYWGPGTQVTVSS” is “low polyreactivity”; for “QVQLVESGGGLVQAGGSLRLSCAASGRTDRTNAMGWYRQAPGKERELVAAISTGGGITNYADSVKGRITISRDNAKNTVYLQMNSLKPEDTAVYYCNADIYTWFQIGGYQYDYWGQGTHVTVSS” it is “low polyreactivity”. On to “QVQLVESGGGLVQAGGSLRLSCAASGYIFGQYAMGWYRQAPGKERELVADITRGGDTYYADSVKGRFTISRDNAKNTVYLQMNSLKPEDTAVYYCAAEQGRTSYRYYYWGQGTQVTVSS”, for which the “polyreactivity (PSR sort gate)” value is “high polyreactivity”. The entry for “QVQLVESGGGLVQAGGSLRLSCSASGLIFYDYDMGWYRQAPGKERELVAAISNDASTYYADSVKGRFTISRDNGKNTVYFQMNSLKPEDTAVYYCAAEPYVFGLSSKPFWYNYWGQGTQVTVSS” is “low polyreactivity”; for “QVQLVESGGGLVQAGGSLRLTCAASGFTIGYYAMGWYRQAPGKERELVAAISWSGGRTYYADSVKGRFTISRDNAKNTVYLQMNSLKPEDTAVYDCAADGQQTYSGYDYWGQGTQVTVSS” it is “high polyreactivity”.
